Several values for one entry are separate records, joined by “and”; a condition that tells them apart may be missing. Equal entries are not always repeated. Blank lines part the entries; values can stand above or below the molecule they belong to.
Tests used:
[1] = system: macrophages co-cultured with Toledo lymphoma cells; test: qRT-PCR of macrophages sorted from Toledo lymphoma co-cultures; assay type: cell-based, human; settings: qRT-PCR on macrophages isolated by FACS from Toledo co-cultures
Protocol: FIG. 8D: Macrophage:Toledo lymphoma co-cultures were harvested 2 hours into phagocytosis assays in the presence of rituximab ([…]), SIRPα-Fc-CD40L ([…]), or the combination of both agents. Macrophages were isolated by CD11b+FACS, RNA was prepared, cDNA synthesized, and gene expression (IFNa1, IFNb1, CD80, and CD86) assessed by qRT-PCR. Fold change was calculated using DDCT and values obtained from the housekeeping gene ACTB, and the corresponding values from untreated samples. […] After 2 hours, co-cultures were isolated from tissue culture vessels and were stained with a fluorescently conjugated CD11b antibody to discriminate macrophages. Cells were then assessed by flow cytometry for the co-localization of fluorescent signal from both cells types. […] After 24-hours type I interferon induced luminescence was assessed using a luminometer. The maximum luminescence (RLU) from each experiment was set to 1, and all other samples were normalized accordingly. […]
RNA was prepared from macrophages isolated using fluorescent activated cell sorting (FACS) from SIRPα-Fc-CD40L/Rituximab treated co-cultures macrophages and Toledo lymphoma cells. The RNA was assessed by gRT-PCR for expression of IFNα1 and IFNβ1, and the macrophage activation markers CD80 and CD86.

[2] = target: recombinant human CD40 (human) (UniProt P25942); test: SPR
Sequence of recombinant human CD40 (human) (P25942 21-193 limits assumed): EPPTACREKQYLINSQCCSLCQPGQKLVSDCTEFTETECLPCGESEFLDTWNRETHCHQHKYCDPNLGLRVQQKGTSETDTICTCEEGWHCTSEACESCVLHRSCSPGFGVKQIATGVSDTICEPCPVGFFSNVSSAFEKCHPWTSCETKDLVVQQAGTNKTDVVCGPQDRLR

FcγR-Ia = FcγR-Ia (Homo sapiens, UniProt P12314); test: SPR
Sequence of FcγR-Ia (P12314 16-288 limits assumed): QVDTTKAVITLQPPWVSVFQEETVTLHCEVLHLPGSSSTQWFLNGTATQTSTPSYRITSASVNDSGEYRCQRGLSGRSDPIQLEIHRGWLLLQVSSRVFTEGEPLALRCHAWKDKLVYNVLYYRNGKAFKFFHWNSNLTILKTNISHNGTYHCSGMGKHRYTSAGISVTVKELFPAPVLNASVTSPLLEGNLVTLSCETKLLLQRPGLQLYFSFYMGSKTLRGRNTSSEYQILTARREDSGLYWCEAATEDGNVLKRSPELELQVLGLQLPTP

tumors = test: Mouse tumor model, SIRPα-Fc-OX40L and checkpoint antibodies (Example 14)
recombinant mouse CD40 = target: T1, recombinant mouse CD40 (mouse, UniProt P27512 20-193, limits assumed); test: dual ELISA: coat mCD47-Fc, titrated mSIRPα-Fc-CD40L, detect mCD40-His, tertiary anti-his-HRP, OD450. This is the same curve as the CD47 row. mCD40-His is the detecting receptor.
T1 construct: also called murine CD40
T1 sequence (P27512 20-193 limits assumed): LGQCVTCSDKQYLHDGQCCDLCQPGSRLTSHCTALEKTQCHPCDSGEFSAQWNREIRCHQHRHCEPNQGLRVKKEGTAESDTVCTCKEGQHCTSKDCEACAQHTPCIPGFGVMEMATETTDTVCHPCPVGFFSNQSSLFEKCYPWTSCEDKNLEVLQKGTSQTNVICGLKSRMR

recombinant mouse CD47 = target: T2, recombinant mouse CD47 (mouse, UniProt Q61735 19-140, limits assumed); test: dual ELISA: coat mCD47-Fc, titrated mSIRPα-Fc-CD40L, detect mCD40-His, tertiary anti-his-HRP, OD450. Signal needs both CD47 and CD40 to be bound.
T2 construct: also called murine CD47
T2 sequence (looked up): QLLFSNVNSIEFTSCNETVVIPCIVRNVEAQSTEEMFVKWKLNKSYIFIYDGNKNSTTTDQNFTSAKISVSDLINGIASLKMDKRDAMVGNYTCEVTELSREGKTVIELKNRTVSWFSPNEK

Molecule: rituximab: anti-CD20 antibody [reference compound]
macrophage activation (CD80, CD86) and expression of type I interferon genes (IFNα1, IFNβ1) [1]: induced macrophage activation and the expression of type I interferon genes

Molecule: IgG1 (antibody)
Kd (FcγR-Ia): 8.42 nM
koff (FcγR-Ia): 0.000156 s⁻¹
kon (FcγR-Ia): 18400 M⁻¹ s⁻¹

Molecule: SIRPα(CD172a)-Fc-OX40L: Chimeric protein: ECD of SIRPα and ECD of OX40L fused via an antibody Fc domain (human sequence SEQ ID NO: 61)
tumor size (tumors; mouse, in vivo): effective in reducing tumor size
survival (tumors; sixteenth day following treatment): had any survivors by the sixteenth day following treatment

The remaining lines, values ahead:

Kd [2]: 1.15 nM
koff [2]: 0.000351 s⁻¹
kon [2]: 304000 M⁻¹ s⁻¹
Molecule: Fc-CD40L (Fc fusion)

EC50 (recombinant mouse CD40): 7.37 nM and 8.73 nM
EC50 (recombinant mouse CD47): 7.37 nM and 8.73 nM
B1: murine SIRPα-Fc-CD40L chimeric protein (Fc fusion)
chain: KELKVTQPEKSVSVAAGDSTVLNCTLTSLLPVGPIRWYRGVGPSRLLIYSFAGEYVPRIRNVSDTTKRNNMDFSIRISNVTPADAGIYYCVKFQKGSSEPDTEIQSGGGTEVYVLAKPSPPEVSGPADRGIPDQKVNFTCKSHGFSPRNITLKWFKDGQELHPLETTVNPSGKNVSYNISSTVRVVLNSMDVNSKVICEVAHITLDRSPLRGIANLSNFIRVSPTVKVTQQSPTSMNQVNLTCRAERFYPEDLQLIWLENGNVSRNDTPKNLTKNTDGTYNYTSLFLVNSSAHREDVVFTCQVKHDQQPAITRNHTVLGFAHSSDQGSMQTFPDNNATHNWNHRRLDKVEEEVNLHEDFVFIKKLKRCNKGEGSLSLLNCEEMRRQFEDLVKDITLNKEEKKENSFEMQRGDEDPQIAAHVVSEANSNAASVLQWAKKGYYTMKSNLVMLENGKQLTVKREGLYYVYTQVTFCSNREPSSQRPFIVGLWLKPSSGSERILLKAANTHSSSQLCEQQSVHLGGVFELQAGASVFVNVTEASQVIHRVGFSSFGLLKL

From patent US20200071380A1, “COMBINATION THERAPIES COMPRISING SIRP ALPHA-BASED CHIMERIC PROTEINS” (Shattuck Labs, Inc., priority 2018, published 2020)
